Assay [1] has as its target TFIIH p62 subunit PH domain, 1-108 (UniProt P32780). Description: real-time NMR of complex during CK2 reaction. Particulars: reference: complex before CK2 addition; sites S129.
In assay [2] the target is TFIIH p62 PH (Homo sapiens) (UniProt P32780). Description: ITC. Particulars: cited from earlier work.
Assay [3] shares this target. As to the kind of experiment: ITC. Particulars: cited from earlier work. This is another data set of the same source.
For assay [4] the target is unchanged. As to the kind of experiment: ITC. Particulars: cited from earlier work. The source holds these as a separate data set.
The target in assay [5] is TFIIH p62 subunit PH domain, 1-108 (UniProt P32780). As to the kind of experiment: real-time NMR of complex during GRK5 reaction. Particulars: reference: complex before GRK5 addition; sites T55.
Assay [6] shares this target. Description: real-time NMR of complex during JNK2α2 reaction. Particulars: reference: Thr55-phosphorylated complex before JNK2α2; sites S46.

On to “XPC AF, 109-156 (from UniProt Q01831) complex after CK2 reaction”, for which the “binding against the reference” value in assay [1] is listed as “stronger”. On to p53 TAD2 (from UniProt P04637), for which the Kd (as a rule, the equilibrium constant for the complex coming apart) in assay [2] was 6 µM; in assay [3], 5 µM; in assay [4] it was 1 µM.

With “p53 TAD, 1-73 (from UniProt P04637) complex after GRK5 reaction”, the “binding against the reference” value in assay [5] is “stronger”. As to “p53 TAD, 1-73 (from UniProt P04637) same complex after JNK2α2 reaction”, the “binding against the reference” value in assay [6] is reported as “stronger”.

These data come from article PMC4753521.
